The values that follow come from the DeepSol protein solubility set.

The nature of the series: soluble on expression in E. coli; label from the status in PepcDB or PDB records.
As for “MICFCAERFQWRRLWQIPGDLLFPGPADMARALLYRRPTEPSTIPVRHGSQFFAVRIRRHRRARRYTLRIHPSDREAILTMPPRGTLADAKEFAQRHGAWIAARLGRLPKAAPFLPGTLVPLRGHDHKIVHRTGRGTVWTEVRESGEKILCVAGETEHIERRVLDFLKREARKDLQKACDRYAPELGVKVTRLSIRDQSSRWGSCTSAGSLSFSWRLILAPSYVLDYLAAHEVAHLVEMNHSARFWRVVGKVCPQMERAKTWLDSYGNDLHRYGISDLEHHHHHH”, the “soluble on expression in E. coli” value is reported as “soluble”.
For “MICHQCPDRHDSLEEETMNAYSPPTLLQLARQKLLREEALAISALKDLPRELLPEMFEEAFTDECTKTLRAMIPMWPFPCLPVGTLIKNPNLETLKAVLEGLDILLAPKVRSSRCKLRVLNLRNEHHEFWRIWAGSHEDECLPQLTQKQPVENSPDCGVKKHLQVTTDFELTKGRLDESATYLLQWAEQRKDSIHLCCRKLQIQGLSKDAFIEIFKIIDANCVQELELSCIWEEELPFLNPYLRQMKNLLTLKLDDITEVTMDGDDLFDEKKRRKLISQLFSFYCLQNLYVDGTFAEGNMIECLRYLKKPLETLCLRYCFLSQTDLDYLPHCLNICKLKHLSLSYIYLFNLFLEPLGILLERVRDTLQTLELQLCGLTDRHFSVLLPALSQCSHLTKINFYENTISLPVLKQLSYHTANLSQLTQEQYPAPQECYDNMRGVETHRLGNICTELLDILRAKRQPERVAFATSRCIKCRGFLVYDLETQRCFFQH” the value was “not soluble”; for “MIDERLKKDLAILPISTVRALTNLSDRQIRYYESQDLLTTKRGKGGQRRFSLNDVERLIEIRMMMESGDSLKDIHNLYETHRVSNRRNEKTEFVHSLENEFLKIGRLEKH”, “not soluble”; for “MIDLHTHTIFSDGELIPSELVRRAVIHGYEAIALTDHADYTNLEQLLDAAKKAKYLEEEWDIRVLSGVELTHVPPRKIAPMAKKAKELGAEIVVVHGETISEPVAQGTNAASAACEYVDILAHPGLISEEDVRTAAENNVFLELTARNGHNRTNGHVARLALEFGATLVVNTDTHAPENLITDETALKIAMGAGL”, “not soluble”.
For “MIDLSTEFAGLRLKNPIVAASSGLTRNLKTIKDLEAAGVAAIVLKSLFEEQIEAEMSQMMSPMDYPEAADYINAYVQSNEISKHLDFLREVKREVAIPVIASINCFRSDSWVDFAKQFEEAGADALEINVMRLNTDLFFDANKAEQMYVDIISSLIKAIRIPVVVKLSKSFANIPSLVDKLRAAGAKGVVLFNRSYQPDIDIDKVQMVAGDVFTSAGEISDTIRH”, the “soluble on expression in E. coli” value is on record as “not soluble”.
Next, “MIDVLLGADDGSLAFVPSEFSCSPGCKIVFKNNAGFPHNIVFDEDSIPSGVDASKISMSEEDLLNAKGETFEVALSNKGEYSFYCSPHQGAGMVGKVTVN”: “soluble”; “MIDVPFLKNVTLKKENIPSFSAYPYCLPAIRTLQSLAFHPNVTFIIGENGTGKSTLLEGIAIALGFNAEGGTKNFRFSTNDSHSSLHEYLRISKSFNTPSDGFFLRAESFYNVASYIDEIDADLEARGNPVIDSYGGISLHEQSHGESFFSLFMNRFSGQGLYILDEPEAALSPMRQLSMLIRMHELAEQGSQFVIATHSPILMAYPESTIYSLTQEGIQESALEDTEHYQTTKLFFENRDRLFHHLFNSLEHHHHHH”: “soluble”; “MIDVRKYIDNAALKPHLSEKEIEEFVLKSEELGIYAVCVNPYHVKLASSIAKKVKVCCVIGFPLGLNKTSVKVKEAVEAVRDGAQELDIVWNLSAFKSEKYDFVVEELKEIFRETPSAVHKVIVETPYLNEEEIKKAVEICIEAGADFIKTSTGFAPRGTTLEEVRLIKSSAKGRIKVKASGGIRDLETAISMIEAGADRIGTSSGISIAEEFLKRHLILEHHHHHH”: “soluble”.
Next, “MIEADYLVIGAGIAGASTGYWLSAHGRVVVLEREAQPGYHSTGRSAAHYTVAYGTPQVRALTAASRAFFDNPPAGFCEHPLLSPRPEMVVDFSDDPEELRRQYESGKALVPQMRLLDAEQACSIVPVLRRDKVFGATYDPTGADIDTDALHQGYLRGIRRNQGQVLCNHEALEIRRVDGAWEVRCDAGSYRAAVLVNAAGAWCDAIAGLAGVRPLGLQPKRRSAFIFAPPPGIDCHDWPMLVSLDESFYLKPDAGMLLGSPANADPVEAHDVQPEQLDIATGMYLIEEATTLTIRRPEHTWAGLRSFVADGDLVAGYAANAEGFFWVAAQGGYGIQTSAAMGEASAALIRHQPLPAHLREHGLDEAMLSPRRLSPLEHHHHHH”: “not soluble”.
